This test has as its target CD91 on macrophages (mouse (C57BL/6 mice)) (UniProt Q91ZX7). The experiment in a line: cell-based or functional assay.
UniProt Q91ZX7, sequence (Q91ZX7 20-4545): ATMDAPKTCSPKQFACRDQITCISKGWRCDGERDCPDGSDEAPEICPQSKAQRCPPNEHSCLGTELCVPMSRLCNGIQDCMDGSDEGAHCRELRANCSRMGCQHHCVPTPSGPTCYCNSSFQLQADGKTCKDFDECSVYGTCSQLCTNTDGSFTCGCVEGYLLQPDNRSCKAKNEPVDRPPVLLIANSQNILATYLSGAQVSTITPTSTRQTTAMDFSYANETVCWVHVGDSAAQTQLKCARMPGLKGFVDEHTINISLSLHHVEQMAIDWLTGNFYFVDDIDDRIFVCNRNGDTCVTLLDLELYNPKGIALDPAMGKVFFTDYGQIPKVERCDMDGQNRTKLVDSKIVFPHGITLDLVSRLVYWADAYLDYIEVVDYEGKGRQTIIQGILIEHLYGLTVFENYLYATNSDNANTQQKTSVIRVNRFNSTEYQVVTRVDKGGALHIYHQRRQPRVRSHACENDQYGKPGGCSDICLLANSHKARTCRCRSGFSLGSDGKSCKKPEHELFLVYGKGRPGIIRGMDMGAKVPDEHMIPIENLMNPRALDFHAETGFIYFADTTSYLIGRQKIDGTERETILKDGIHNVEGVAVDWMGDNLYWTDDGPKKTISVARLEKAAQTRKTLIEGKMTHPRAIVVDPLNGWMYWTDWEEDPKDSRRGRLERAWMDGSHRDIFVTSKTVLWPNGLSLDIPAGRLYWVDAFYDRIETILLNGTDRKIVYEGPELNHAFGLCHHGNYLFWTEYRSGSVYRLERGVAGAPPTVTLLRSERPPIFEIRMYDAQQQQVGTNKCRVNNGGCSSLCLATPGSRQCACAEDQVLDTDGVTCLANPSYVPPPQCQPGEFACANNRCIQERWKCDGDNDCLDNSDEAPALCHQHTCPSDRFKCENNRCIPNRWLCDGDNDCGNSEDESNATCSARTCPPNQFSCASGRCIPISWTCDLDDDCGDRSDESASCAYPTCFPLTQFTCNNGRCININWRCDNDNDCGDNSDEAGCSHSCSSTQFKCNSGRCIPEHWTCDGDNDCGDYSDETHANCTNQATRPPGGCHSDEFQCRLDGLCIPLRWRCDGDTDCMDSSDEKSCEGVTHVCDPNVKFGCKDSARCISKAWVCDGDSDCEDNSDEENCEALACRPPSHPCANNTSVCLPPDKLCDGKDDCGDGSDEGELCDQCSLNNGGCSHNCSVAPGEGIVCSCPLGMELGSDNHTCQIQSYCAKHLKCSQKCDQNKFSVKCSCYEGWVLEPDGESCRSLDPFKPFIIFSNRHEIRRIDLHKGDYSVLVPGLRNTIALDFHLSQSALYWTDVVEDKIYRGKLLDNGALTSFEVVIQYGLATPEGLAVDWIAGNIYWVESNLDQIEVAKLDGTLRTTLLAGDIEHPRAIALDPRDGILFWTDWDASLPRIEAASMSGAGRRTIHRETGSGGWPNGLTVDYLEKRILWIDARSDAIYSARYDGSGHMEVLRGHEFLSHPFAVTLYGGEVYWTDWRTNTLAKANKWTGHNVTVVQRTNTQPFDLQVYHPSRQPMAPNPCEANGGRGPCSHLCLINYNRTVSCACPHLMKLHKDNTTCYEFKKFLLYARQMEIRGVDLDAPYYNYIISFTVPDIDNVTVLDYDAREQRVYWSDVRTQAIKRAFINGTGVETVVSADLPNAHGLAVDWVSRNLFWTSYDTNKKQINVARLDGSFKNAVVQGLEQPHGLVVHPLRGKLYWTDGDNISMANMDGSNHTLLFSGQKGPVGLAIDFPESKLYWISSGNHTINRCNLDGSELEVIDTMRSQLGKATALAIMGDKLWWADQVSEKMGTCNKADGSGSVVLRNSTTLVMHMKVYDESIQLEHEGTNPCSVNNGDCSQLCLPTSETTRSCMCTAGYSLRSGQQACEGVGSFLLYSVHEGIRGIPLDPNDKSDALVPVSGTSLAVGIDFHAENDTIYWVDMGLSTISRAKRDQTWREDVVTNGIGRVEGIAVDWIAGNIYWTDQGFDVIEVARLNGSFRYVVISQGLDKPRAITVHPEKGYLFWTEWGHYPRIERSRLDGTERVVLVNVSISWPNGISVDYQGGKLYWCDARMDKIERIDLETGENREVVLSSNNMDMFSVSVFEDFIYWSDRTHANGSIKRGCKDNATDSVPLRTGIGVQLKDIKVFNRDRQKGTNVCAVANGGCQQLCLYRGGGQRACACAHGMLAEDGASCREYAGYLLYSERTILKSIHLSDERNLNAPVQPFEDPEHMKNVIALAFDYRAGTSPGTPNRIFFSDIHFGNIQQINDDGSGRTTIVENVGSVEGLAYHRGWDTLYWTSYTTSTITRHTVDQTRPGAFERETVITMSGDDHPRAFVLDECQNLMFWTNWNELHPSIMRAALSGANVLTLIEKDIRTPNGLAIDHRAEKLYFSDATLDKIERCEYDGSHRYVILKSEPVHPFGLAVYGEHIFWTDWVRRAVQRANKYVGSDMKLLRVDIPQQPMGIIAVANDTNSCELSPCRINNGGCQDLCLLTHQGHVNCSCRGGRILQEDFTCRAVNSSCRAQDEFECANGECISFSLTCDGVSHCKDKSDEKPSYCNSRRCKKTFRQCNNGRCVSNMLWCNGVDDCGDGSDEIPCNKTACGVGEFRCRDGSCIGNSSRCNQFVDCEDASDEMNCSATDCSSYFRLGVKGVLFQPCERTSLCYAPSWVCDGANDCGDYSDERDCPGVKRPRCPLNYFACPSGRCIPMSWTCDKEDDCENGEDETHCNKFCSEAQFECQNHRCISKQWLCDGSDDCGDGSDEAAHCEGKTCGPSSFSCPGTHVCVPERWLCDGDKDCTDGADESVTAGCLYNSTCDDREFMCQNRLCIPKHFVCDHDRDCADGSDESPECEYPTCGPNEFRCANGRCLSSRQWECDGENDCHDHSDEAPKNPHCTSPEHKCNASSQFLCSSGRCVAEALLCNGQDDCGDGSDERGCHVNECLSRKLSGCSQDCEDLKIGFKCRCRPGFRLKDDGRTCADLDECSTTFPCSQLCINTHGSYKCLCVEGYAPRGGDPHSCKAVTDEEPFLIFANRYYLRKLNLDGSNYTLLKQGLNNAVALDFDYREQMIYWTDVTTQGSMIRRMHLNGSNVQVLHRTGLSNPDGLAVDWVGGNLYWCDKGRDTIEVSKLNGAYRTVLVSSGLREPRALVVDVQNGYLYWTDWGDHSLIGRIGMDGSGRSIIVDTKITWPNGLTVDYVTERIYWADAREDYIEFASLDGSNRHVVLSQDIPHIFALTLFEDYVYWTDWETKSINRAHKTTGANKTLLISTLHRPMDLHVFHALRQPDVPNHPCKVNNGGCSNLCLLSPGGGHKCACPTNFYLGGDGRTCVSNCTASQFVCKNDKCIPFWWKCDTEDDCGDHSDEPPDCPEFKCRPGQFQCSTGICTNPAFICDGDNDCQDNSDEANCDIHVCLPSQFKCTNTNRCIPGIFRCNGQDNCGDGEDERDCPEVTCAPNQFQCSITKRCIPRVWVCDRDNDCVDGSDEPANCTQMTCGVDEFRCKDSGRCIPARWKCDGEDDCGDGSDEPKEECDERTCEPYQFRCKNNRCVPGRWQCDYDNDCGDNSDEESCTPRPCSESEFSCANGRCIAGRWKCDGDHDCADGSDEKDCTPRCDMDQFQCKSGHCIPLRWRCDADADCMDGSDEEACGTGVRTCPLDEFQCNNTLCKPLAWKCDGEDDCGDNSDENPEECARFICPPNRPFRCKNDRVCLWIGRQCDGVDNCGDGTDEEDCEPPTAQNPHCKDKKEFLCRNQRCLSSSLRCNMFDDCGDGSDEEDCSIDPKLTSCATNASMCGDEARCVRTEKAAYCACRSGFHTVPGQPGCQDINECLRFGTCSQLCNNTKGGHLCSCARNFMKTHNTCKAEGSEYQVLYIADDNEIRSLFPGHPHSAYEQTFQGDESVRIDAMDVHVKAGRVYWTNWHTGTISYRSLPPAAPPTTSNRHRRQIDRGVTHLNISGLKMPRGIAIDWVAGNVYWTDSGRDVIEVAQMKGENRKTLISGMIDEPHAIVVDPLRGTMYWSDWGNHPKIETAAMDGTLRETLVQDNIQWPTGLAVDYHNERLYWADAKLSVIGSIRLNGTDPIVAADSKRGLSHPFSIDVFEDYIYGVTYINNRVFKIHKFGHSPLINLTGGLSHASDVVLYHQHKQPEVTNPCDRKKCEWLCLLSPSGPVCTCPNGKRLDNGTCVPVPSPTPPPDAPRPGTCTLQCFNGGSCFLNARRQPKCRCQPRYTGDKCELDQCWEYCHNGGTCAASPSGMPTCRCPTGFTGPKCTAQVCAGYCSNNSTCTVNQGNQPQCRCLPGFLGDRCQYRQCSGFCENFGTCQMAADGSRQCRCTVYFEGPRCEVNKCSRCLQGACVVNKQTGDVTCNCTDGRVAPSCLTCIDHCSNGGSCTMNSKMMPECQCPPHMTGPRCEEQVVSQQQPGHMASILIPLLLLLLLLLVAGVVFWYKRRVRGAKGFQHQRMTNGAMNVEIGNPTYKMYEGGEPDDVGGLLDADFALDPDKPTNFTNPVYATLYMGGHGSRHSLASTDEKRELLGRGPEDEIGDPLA

As for “calreticulin (CRT), recombinant (ligand)”, the IFN alpha MFI (Fold Change), RAW264.7 macrophage (M1) cells pulsed with calreticulin 10 ug/ml for 20 min, FACS stood at 7.5 fold change; the IFN beta MFI (Fold Change), RAW264.7 macrophage (M1) cells pulsed with calreticulin 10 ug/ml for 20 min, FACS stood at 7 fold change; the IL-12 MFI (Fold Change), RAW264.7 macrophage (M1) cells pulsed with calreticulin 10 ug/ml for 20 min, FACS stood at 3.5 fold change; the IL-15 MFI (Fold Change), RAW264.7 macrophage (M1) cells pulsed with calreticulin 10 ug/ml for 20 min, FACS worked out at 3.5 fold change.

Source of the values: patent US20210393741A1.
